The values that follow come from patent US20240158510A1 (GOVERNING COUNCIL OF THE UNIVERSITY OF TORONTO, published 2024).

Substitutions are numbered along the chain they refer to. Like-named read-outs stand apart in the source and are kept apart here. A value given as a limit tells only on which side of the number the result lay.

Assay [1] deals with T1, integrin αvβ1 expressed on CHO cells (UniProt P06756 31-1048; P05556 21-798, limits assumed). Briefly: cell-based or functional assay.
For assay [2], the target named is T2, integrin αvβ8 expressed on CHO cells (UniProt P06756 31-1048; P26012 43-769, limits assumed). Briefly: cell-based or functional assay.
Assay [3] addresses T1, integrin αvβ1 expressed on CHO cells. Description: cell-based or functional assay. The source holds these as a separate data set.
Assay [4] deals with T3, integrin αvβ3 expressed on CHO cells (UniProt P06756 31-1048; P05106 27-788, limits assumed). Description: cell-based or functional assay.
The target in assay [5] is T4, integrin αvβ5 expressed on CHO cells (UniProt P06756 31-1048; P18084 24-799, limits assumed). Briefly: cell-based or functional assay.
Assay [6] concerns the target T5, integrin αvβ6 expressed on CHO cells (UniProt P06756 31-1048; P18564 22-788, limits assumed).
T5 construct: whole, on cells
Description: flow cytometry titration on integrin-expressing CHO cells. The procedure: (§1) Adherent cells were brought into suspension using PBS supplemented with 10 mM ethylenediaminetetraacetic acid (EDTA). The cells were washed with PBS, resuspended in PBS supplemented with 1% BSA, and incubated for 15 minutes at 4° C. The cells were labelled with 50 μl of Fab-phage culture supernatant, or 500 nM Fab, or IgG for 30 minutes at 4° C., then washed with PBS and resuspended in PBS supplemented with 1% BSA. Next, the cells were labelled with anti-Fab (for Fab-phage), or anti-Flag (for Fabs) or anti-Fc (for IgGs) conjugated Alexa-488 secondary Ab according to manufacturer's instructions. Data were collected using a CytoFLEX-S flow-cytometer using a 488-nm laser with 530/25 nm filter settings. The cells were analyzed in PBS, and all acquired live events were greater than 10,000 cells per sample. Quantitation analysis was carried out using FlowJo v10.2 Software. For Ab cellular titration analysis, the Abs were added to antigen positive cells in duplicate samples from a range of 500 pM to 1 μM. The mean fluorescence signal values were subtracted from the control antigen negative cells signals, and EC50 determined using Graph-pad Prism, where x is the Fab concentration: […]

The target of assay [7] is T2, integrin αvβ8 expressed on CHO cells. The assay is described as above. The procedure:
as §1

Assay [8] concerns the target T1, integrin αvβ1 expressed on CHO cells. Described as above. The procedure: as §1
Assay [9] addresses T3, integrin αvβ3 expressed on CHO cells. Described as above. The procedure:
as §1

Assay [10] deals with T4, integrin αvβ5 expressed on CHO cells. The description is as above. The procedure: as §1
Assay [11] deals with T6, recombinant human integrin-αvβ1 (human, UniProt P06756 31-992; P05556 21-728, limits assumed).
T6 construct: also called Recombinant Human Integrins
Briefly: IgG titration on recombinant human integrin αvβ1, one site-total fit; assay format not stated. Set-up: Bmax: unit not given here.

In assay [12] the target is T7, recombinant mouse integrin-αvβ1 (mouse, UniProt P43406 31-988; P09055 21-728, limits assumed).
T7 construct: also called Recombinant Mouse Integrins
Description: IgG titration on recombinant mouse integrin αvβ1, one site-total fit; assay format not stated.

Assay [13] has as its target T1, integrin αvβ1 expressed on CHO cells. Description: cell-based or functional assay. The source holds these as a separate data set.
Assay [14] addresses T5, integrin αvβ6 expressed on CHO cells. Briefly: cell-based or functional assay.
The target in assay [15] is T2, integrin αvβ8 expressed on CHO cells. Briefly: cell-based or functional assay. The source holds these as a separate data set.
Assay [16] addresses T1, integrin αvβ1 expressed on CHO cells. Description: cell-based or functional assay. The source holds these as a separate data set.
Assay [17] deals with T3, integrin αvβ3 expressed on CHO cells. Briefly: cell-based or functional assay. The source holds these as a separate data set.
Assay [18] concerns the target T4, integrin αvβ5 expressed on CHO cells. Briefly: cell-based or functional assay. The source holds these as a separate data set.
Assay [19] concerns the target T1, integrin αvβ1 expressed on CHO cells. Description: flow cytometry titration on AvB1 CHO cells. The procedure: as §1
Assay [20] addresses T3, integrin αvβ3 expressed on CHO cells. Description: flow cytometry titration on AvB3 CHO cells. The procedure:
as §1

The target of assay [21] is T4, integrin αvβ5 expressed on CHO cells. Briefly: flow cytometry titration on AvB5 CHO cells. The procedure: as §1
Assay [22] has as its target T5, integrin αvβ6 expressed on CHO cells. Briefly: flow cytometry titration on AvB6 CHO cells. The procedure:
as §1

The target of assay [23] is T2, integrin αvβ8 expressed on CHO cells. Description: flow cytometry titration on AvB8 CHO cells. The procedure:
as §1

In assay [24] the target is T1, integrin αvβ1 expressed on CHO cells. Description: flow cytometry titration on integrin-αvβ1 CHO cells (curves in FIG. 12K). The procedure:
as §1

Assay [25] has the same target. Description: cell-based or functional assay. This is another data set of the same source.
Assay [26] shares this target. Briefly: flow cytometry titration on integrin-αvβ1 CHO cells; binder taken from the context of FIG. 10 and Example 2. The procedure:
as §1

T1 sequence (P06756 31-1048 limits assumed, chain 1 of 2): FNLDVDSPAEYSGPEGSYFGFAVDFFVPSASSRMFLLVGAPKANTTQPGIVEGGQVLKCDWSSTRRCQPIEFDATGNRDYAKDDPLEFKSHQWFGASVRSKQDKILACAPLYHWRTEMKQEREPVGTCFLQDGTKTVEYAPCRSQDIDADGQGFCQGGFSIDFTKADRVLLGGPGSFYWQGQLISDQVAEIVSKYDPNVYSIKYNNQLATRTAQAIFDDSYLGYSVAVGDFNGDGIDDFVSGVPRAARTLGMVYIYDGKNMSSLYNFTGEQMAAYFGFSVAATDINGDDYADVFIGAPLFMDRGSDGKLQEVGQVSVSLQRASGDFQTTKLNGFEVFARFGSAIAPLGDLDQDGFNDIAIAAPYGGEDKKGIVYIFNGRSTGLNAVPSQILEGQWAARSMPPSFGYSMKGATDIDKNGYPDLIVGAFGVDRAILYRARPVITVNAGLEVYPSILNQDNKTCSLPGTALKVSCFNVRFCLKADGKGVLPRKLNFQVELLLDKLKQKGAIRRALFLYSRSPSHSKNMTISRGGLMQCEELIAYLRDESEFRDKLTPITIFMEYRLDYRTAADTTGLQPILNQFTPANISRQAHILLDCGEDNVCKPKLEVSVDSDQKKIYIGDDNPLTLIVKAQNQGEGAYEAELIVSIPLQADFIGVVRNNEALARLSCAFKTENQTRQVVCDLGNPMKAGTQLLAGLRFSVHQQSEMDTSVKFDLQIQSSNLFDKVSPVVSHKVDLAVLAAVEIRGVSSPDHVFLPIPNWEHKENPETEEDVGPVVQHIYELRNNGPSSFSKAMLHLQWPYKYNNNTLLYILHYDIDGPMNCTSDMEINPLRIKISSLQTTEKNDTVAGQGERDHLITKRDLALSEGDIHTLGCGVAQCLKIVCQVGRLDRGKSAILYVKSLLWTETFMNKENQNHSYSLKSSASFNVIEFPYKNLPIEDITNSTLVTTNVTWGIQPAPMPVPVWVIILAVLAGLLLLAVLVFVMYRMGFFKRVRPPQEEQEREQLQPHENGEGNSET
T1 sequence (P05556 21-798 limits assumed, chain 2 of 2): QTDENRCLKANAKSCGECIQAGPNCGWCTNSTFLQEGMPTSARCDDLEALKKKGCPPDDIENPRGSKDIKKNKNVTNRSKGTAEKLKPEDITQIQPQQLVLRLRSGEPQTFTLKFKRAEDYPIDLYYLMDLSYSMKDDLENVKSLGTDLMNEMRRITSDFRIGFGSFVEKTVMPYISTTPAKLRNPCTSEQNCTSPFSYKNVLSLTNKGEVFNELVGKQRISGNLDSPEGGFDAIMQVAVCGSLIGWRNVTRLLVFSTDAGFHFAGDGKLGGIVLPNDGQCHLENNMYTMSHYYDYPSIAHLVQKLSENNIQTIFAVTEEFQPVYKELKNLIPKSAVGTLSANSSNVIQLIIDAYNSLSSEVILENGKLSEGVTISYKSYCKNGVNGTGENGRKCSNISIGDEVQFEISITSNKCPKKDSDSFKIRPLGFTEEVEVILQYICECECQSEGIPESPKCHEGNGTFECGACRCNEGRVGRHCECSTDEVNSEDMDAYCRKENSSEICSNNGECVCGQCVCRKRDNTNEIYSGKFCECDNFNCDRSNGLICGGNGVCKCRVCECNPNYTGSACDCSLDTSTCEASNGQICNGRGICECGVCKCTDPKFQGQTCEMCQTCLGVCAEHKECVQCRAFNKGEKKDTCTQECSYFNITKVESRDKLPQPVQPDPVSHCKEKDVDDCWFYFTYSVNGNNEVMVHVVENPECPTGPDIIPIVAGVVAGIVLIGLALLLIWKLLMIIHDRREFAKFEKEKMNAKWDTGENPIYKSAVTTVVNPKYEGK
T5 sequence (P06756 31-1048 limits assumed, chain 1 of 2): as the sequence (P06756 31-1048 limits assumed, chain 1 of 2) above
T5 sequence (P18564 22-788 limits assumed, chain 2 of 2): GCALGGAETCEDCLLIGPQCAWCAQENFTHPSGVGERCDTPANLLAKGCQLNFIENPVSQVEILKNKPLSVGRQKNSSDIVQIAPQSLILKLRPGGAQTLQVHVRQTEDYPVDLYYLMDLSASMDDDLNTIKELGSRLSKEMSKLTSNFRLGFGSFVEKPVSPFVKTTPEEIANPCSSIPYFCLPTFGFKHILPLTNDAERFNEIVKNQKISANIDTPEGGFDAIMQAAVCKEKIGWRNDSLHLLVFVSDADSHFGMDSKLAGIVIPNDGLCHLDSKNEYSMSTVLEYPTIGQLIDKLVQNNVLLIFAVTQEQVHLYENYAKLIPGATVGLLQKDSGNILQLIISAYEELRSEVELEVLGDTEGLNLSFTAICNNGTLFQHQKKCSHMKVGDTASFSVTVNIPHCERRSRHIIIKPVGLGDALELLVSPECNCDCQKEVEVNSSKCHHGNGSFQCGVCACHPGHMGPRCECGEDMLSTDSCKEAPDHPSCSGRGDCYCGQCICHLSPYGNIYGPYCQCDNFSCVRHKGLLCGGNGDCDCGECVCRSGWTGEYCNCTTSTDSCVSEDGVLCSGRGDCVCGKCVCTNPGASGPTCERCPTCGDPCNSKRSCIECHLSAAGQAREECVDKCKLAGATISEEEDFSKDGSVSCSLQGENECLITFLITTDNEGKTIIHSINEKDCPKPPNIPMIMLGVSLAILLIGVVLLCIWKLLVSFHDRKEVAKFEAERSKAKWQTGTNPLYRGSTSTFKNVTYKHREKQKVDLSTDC
T2 sequence (P06756 31-1048 limits assumed, chain 1 of 2): as the sequence (P06756 31-1048 limits assumed, chain 1 of 2) above
T2 sequence (P26012 43-769 limits assumed, chain 2 of 2): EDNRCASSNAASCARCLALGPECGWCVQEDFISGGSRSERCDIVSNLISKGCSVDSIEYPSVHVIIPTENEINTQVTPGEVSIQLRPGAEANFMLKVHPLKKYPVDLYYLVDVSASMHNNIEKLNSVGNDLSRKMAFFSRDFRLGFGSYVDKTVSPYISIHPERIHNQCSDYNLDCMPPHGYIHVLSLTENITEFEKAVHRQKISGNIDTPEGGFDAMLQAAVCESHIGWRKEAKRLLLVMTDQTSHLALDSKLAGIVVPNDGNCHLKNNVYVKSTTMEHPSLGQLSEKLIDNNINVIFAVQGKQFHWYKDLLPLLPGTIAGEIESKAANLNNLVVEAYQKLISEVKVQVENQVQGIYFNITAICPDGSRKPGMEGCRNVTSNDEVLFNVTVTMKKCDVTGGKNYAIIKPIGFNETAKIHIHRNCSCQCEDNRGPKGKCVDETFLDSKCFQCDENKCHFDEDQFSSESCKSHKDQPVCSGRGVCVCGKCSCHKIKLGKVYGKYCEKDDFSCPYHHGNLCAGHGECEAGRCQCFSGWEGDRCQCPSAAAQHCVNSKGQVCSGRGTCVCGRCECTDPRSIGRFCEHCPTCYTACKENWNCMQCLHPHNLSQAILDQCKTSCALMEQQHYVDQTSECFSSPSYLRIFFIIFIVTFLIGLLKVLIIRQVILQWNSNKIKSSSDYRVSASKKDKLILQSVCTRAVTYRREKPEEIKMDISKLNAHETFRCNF
T3 sequence (P06756 31-1048 limits assumed, chain 1 of 2): as the sequence (P06756 31-1048 limits assumed, chain 1 of 2) above
T3 sequence (P05106 27-788 limits assumed, chain 2 of 2): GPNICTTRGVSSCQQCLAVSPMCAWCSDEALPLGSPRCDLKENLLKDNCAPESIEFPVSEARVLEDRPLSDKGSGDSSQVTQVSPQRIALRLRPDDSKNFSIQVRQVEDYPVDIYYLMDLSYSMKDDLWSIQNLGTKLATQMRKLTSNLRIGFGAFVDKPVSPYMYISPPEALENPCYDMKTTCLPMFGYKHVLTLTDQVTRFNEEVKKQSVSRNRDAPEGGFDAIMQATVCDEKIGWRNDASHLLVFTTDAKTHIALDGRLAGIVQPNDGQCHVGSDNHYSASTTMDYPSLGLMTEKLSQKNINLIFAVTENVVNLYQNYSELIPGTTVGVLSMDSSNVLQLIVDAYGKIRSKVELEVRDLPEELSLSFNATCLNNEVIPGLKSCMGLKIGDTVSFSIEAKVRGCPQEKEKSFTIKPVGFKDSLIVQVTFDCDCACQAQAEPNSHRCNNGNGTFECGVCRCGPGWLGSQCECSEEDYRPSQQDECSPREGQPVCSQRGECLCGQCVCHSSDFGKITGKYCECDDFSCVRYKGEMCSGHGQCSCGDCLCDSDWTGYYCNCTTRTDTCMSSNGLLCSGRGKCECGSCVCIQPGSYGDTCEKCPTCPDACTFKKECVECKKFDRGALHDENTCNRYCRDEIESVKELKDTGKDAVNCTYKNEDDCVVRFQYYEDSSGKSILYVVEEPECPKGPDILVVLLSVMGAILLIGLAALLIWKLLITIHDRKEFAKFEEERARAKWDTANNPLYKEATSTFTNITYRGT
T4 sequence (P06756 31-1048 limits assumed, chain 1 of 2): as the sequence (P06756 31-1048 limits assumed, chain 1 of 2) above
T4 sequence (P18084 24-799 limits assumed, chain 2 of 2): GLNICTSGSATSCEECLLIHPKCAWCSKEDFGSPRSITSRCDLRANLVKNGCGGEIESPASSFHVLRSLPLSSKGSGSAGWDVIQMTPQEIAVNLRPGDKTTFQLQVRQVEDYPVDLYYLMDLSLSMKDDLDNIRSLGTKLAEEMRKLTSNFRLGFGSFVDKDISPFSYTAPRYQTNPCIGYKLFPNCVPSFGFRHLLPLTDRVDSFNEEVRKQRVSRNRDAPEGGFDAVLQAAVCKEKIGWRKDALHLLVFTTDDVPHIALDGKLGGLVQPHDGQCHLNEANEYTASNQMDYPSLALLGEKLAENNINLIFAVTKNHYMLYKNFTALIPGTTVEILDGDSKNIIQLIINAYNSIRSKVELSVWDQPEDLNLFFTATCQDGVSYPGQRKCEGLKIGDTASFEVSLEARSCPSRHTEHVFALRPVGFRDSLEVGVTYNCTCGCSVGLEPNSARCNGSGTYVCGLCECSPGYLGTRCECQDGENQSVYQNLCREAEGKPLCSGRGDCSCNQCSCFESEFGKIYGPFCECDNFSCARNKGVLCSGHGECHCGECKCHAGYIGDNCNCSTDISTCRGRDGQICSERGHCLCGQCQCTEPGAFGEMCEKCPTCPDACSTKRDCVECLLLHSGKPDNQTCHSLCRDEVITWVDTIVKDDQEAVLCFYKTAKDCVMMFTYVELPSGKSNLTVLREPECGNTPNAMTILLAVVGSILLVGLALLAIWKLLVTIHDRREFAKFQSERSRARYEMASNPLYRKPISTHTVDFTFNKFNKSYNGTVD

B1: IgG clone 10404, hG1/hk (pSCSTa-hG1 (10404) heavy chain, pSCSTa-hK (10404) light chain) (antibody, V domains shown)
VH: EVQLVESGGGLVQPGGSLRLSCAASGFNLYSSSIHWVRQAPGKGLEWVAYIYPSYGYTSTYADSVKGRFTISADTSKNTAYLQMNSLRAEDTAVYYCARPAPYYSWYPAMDYWGQGTLVTVSS
VL: DIQMTQSPSSLSASVGDRVTITCRASQSVSSAVAWYQQKPGKAPKLLIYSASSLYSGVPSRFSGSRSGTDFTLTISSLQPEDFATYYCQQASGSPFTFGQGTKVEIKR
notes: Full-length human IgG1/kappa made in Expi293 cells
With B1, the “adhesion of integrin-αvβ1 CHO cells to LAP-TGFβ, normalised confluence, number over the bar, untreated = 100” value in [1] turned out to be 46.2%. Further, the “IC50, inhibition of CHO cell adhesion to LAP-TGFβ” value in [2] was less than 1 nM; in assay [3], 13.2 nM; in assay [4], 23.8 nM; in assay [5] it was 3.64 nM. Besides, the EC50 was found to be 2.96 nM in assay [6]; 14.3 nM in [7]; 2.43 nM in assay [8]; 13.1 nM in assay [9]; 2.45 nM in assay [10]. Besides, the Bmax in assay [11] and in assay [12] was 1.09 throughout. In addition, the Kd in [11] worked out at 0.271 nM.

B2: IgG 11867 (antibody, V domains shown)
VH: EVQLVESGGGLVQPGGSLRLSCAASGFDFDSYAIHWVRQAPGKGLEWVAYFYPGHDYSTYADSVKGRFTISADTSKNTAYLQMNSLRAEDTAVYYCARPSPYFSWHQAMDYWGQGTLVTVSS
VL: B1 VL with S92T, P95E, F96V
notes: also called 11867 hG1
As to B2, the “IC50, inhibition of integrin-αvβ1 CHO cell adhesion to LAP-TGFβ (curves in FIG. 12L)” value in assay [13] came out at 2.9 nM. For the same molecule, the “IC50, inhibition of CHO cell adhesion to LAP-TGFβ” value in [14] worked out at 2.1 nM; in assay [15], 1.3 nM; in [16], 1.6 nM; in [17], 2.4 nM; in [18], 4.1 nM. Besides, the EC50 in assay [19] was 2.6 nM; in [20], 6.8 nM; in [21], 1.2 nM; in [22], 1.7 nM; in [23] it was 8.9 nM; in [24], 2.6 nM.

B3: 10404/10392 (bispecific antibody, human IgG1, kappa)
heavy chain 10392, knob: EVQLVESGGGLVQPGGSLRLSCAASGFNIYYSSIHWVRQAPGKGLEWVASISSSSGSTSYADSVKGRFTISADTSKNTAYLQMNSLRAEDTAVYYCARSYYGGGYPYALDYWGQGTLVTVSSASTKGPSVFPLAPSSKSTSGGTAALGCLVKDYFPEPVTVSWNSGALTSGVHTFPAVLQSSGLYSLSSVVTVPSSSLGTQTYICNVNHKPSNTKVDKKVEPKSCDKTHTCPPCPAPELLGGPSVFLFPPKPKDTLMISRTPEVTCVVVDVSHEDPEVKFNWYVDGVEVHNAKTKPREEQYNSTYRVVSVLTVLHQDWLNGKEYKCKVSNKALPAPIEKTISKAKGQPREPMVFDLPPSREEMTKNQVSLWCMVKGFYPSDIAVEWESNGQPENNYKTTPPVLDSDGSFFLYSKLTVDKSRWQQGNVFSCSVMHEALHNHYTQKSLSLSPGK
heavy chain 10404, hole: EVQLVESGGGLVQPGGSLRLSCAASGFNLYSSSIHWVRQAPGKGLEWVAYIYPSYGYTSTYADSVKGRFTISADTSKNTAYLQMNSLRAEDTAVYYCARPAPYYSWYPAMDYWGQGTLVTVSSASTKGPSVFPLAPSSKSTSGGTAALGCLVKDYFPEPVTVSWNSGALTSGVHTFPAVLQSSGLYSLSSVVTVPSSSLGTQTYICNVNHKPSNTKVDKKVEPKSCDKTHTCPPCPAPELLGGPSVFLFPPKPKDTLMISRTPEVTCVVVDVSHEDPEVKFNWYVDGVEVHNAKTKPREEQYNSTYRVVSVLTVLHQDWLNGKEYKCKVSNKALPAPIEKTISKAKGQPREPQVYTLPPIRELMTSNQVSLSCAVKGFYPSDIAVEWESNGQPENNYKTTPPVLDSDGSFFLVSKLTVDKSRWQQGNVFSCSVMHEALHNHYTQKSLSLSPGK
light chain 10404: DIQMTQSPSSLSASVGDRVTITCRASQSVSSAVAWYQQKPGKAPKLLIYSASSLYSGVPSRFSGSRSGTDFTLTISSLQPEDFATYYCQQASGSPFTFGQGTKVEIKRTVAAPSVFIFPPSDEQLKSGTASVVCLLNNFYPREAKVQWKVDNALQSGNSQESVTEQDSKDSTYSLSSTLTLSKADYEKHKVYACEVTHQGLSSPVTKSFNRGEC
As for B3, the “adhesion of integrin-αvβ1 CHO cells to LAP-TGFβ, normalised confluence, number over the bar, untreated = 100” value in [1] is 16.7%. Moreover, the “IC50, inhibition of integrin-αvβ1 CHO cell adhesion to LAP-TGFβ; no antibody named on the panel, binder taken from the context of FIG. 10” value in [25] is 2.91 nM. For the same molecule, the “IC50, inhibition of CHO cell adhesion to LAP-TGFβ” value is 55.1 nM in assay [2], 9.83 nM in [3], 24.2 nM in [4] and 18.2 nM in [5]. The EC50 in assay [26] is 2.39 nM.
